The numbers were not newly measured in patent US20210077665A1, “METHODS AND DEVICES FOR LYMPHATIC TARGETING” (priority 2005, published 2021), which cites them from elsewhere.

pIC50: −log10 of the molar value.

For data set [1] the following is noted: at 44 h; pleural injection.

“111In-avidin: 111In labeled avidin injected in the pleural space (literature)”: the “uptake in mediastinal nodes” value in data set [1] is 3.3%. The pIC50 is −log10 of the IC50, conventionally taken in molar units. Consider `CC(=O)O[C@H]1C(=O)[C@@]2(C)[C@H]([C@H](OC(=O)c3ccccc3)[C@]3(O)C[C@H](OC(=O)[C@H](O)[C@@H](NC(=O)c4ccccc4)c4ccccc4)C(C)=C1C3(C)C)[C@]1(OC(C)=O)CO[C@@H]1C[C@@H]2O` [Paclitaxel, paclitaxel], for which, in the data set on H460 lung cancer cells, the pIC50 is 8.30.
